Results: publication PMC6267192

Biological target: TLR2 (human (endogenous in BEAS-2B)) (UniProt O60603)
Chain of UniProt O60603 (O60603 21-784): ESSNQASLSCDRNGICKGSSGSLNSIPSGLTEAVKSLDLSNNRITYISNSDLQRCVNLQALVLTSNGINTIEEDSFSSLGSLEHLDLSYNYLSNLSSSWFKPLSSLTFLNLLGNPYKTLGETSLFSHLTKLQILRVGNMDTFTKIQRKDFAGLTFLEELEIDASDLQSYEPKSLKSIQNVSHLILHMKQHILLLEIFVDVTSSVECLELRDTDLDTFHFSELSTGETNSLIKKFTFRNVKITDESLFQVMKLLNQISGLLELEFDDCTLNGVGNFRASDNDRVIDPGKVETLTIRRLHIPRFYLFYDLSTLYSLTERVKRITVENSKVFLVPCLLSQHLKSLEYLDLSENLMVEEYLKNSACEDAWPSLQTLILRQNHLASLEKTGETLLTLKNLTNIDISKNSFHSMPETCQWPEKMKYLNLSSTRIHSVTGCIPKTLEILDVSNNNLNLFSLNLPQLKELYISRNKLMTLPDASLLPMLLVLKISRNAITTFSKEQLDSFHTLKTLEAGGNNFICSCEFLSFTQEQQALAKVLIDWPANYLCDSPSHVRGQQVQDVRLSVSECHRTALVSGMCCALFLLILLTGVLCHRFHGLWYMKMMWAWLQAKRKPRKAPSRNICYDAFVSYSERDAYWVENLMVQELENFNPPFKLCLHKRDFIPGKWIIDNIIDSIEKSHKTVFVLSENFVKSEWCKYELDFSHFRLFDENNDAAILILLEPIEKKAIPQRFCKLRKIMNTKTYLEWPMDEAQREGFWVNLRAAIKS

IL-8 release from BEAS-2B cells, allergen at 25 µg/mL, 24 hours [pg/mL] | Substance
310 | recombinant Der p 2 variant 2.0110 (from UniProt P49278 18-146) (natural protein)
157 | Der p 2.0110 S47W (natural protein)
